In patent US20120040894A1:
Numbered stars: 1 amine (or outer) side, 2 acyl side, 3 side chain; on linkers, the order of the positions; unused ones are H or OH. Square brackets hold non-standard residues; d marks the D form. Ends that are not written are not given here. Dap(AcBr) = N-(bromoacetyl)-L-2,3-diaminopropionic acid, O=C(CBr)NC[C@H](N[*:1])C(=O)[*:2]; Oic = O=C(O)[C@@H]1C[C@@H]2CCCC[C@@H]2N1; Dip = N[C@H](C(=O)O)C(c1ccccc1)c1ccccc1; β3hF = N[C@H](CC(=O)O)Cc1ccccc1; Chg = N[C@H](C(=O)O)C1CCCCC1; Phg = N[C@H](C(=O)O)c1ccccc1; Tle = CC(C)(C)[C@H](N)C(=O)O; β3hP = O=C(O)C[C@@H]1CCCN1; Dpa = not defined here

T1: ferroportin tagged at the C-terminus with green fluorescent protein (ECR293/Fpn-GFP cells)
T1 sequence (Q9NP59 whole entry, species assumed, looked up): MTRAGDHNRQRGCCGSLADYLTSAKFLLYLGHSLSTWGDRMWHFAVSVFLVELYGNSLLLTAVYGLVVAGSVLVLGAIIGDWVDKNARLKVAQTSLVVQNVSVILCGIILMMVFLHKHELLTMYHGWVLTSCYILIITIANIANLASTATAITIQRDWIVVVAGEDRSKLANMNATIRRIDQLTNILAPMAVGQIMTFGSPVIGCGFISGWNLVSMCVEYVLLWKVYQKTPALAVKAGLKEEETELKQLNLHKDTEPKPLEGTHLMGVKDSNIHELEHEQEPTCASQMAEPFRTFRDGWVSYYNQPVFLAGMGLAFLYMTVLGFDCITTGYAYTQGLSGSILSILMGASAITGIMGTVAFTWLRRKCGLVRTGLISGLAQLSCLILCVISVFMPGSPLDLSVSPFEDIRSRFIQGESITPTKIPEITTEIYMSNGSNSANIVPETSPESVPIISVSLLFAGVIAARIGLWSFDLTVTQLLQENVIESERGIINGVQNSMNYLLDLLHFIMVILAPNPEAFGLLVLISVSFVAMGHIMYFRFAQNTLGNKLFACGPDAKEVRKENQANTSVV


Target: T1, ferroportin tagged at the C-terminus with green fluorescent protein (ECR293/Fpn-GFP cells)
Experiment: cell-based or functional assay

| EC50 (nM); loss of fluorescence of Fpn-GFP cells, flow cytometry [nM] | Binder |
| --- | --- |
| 200 | DTHFPICI[β3hF]PPR-NH2 [Pr20] |
| 70 | D[Dpa]PICIF-NH2 (reading uncertain) [Pr40] |
| 80 | DTH[Dip]PCCC[Dip]-NH2 (also: any disulfide between the Cys residues not recoverable) [Pr46] |
| 300 | D[Dpa]PICI[Dpa]-NH2 (reading uncertain) [Pr41] |
| 700 | DTHFPICI[β3hF]PPK-NH2 [Pr19] |

More lines, now with the values behind:

| Binder | EC50 (nM); loss of fluorescence of Fpn-GFP cells, flow cytometry [nM] |
| --- | --- |
| DTHFPICI[β3hF]P[β3hP]K-NH2 [Pr21] | 500 |
| DTHFPI[Dap(AcBr)]IF-NH2 (N-terminus assumed; SMILES CC[C@H](C)[C@H](NC(=O)[C@H](CNC(=O)CBr)NC(=O)[C@@H](NC(=O)[C@@H]1CCCN1C(=O)[C@H](Cc1ccccc1)NC(=O)[C@H](Cc1c[nH]cn1)NC(=O)[C@@H](NC(=O)[C@@H](N)CC(=O)O)[C@@H](C)O)[C@@H](C)CC)C(=O)N[C@@H](Cc1ccccc1)C(N)=O) [Dap(AcBr)] | > 10000 |
| D[Tle]HP[Oic][Chg]C[Chg]F-NH2 (also: retroinverted) [Pr11] | > 3000 |
| D[Tle]H[Phg][Oic][Chg]C[Chg]F-NH2 (N-terminus assumed; SMILES CC(C)(C)[C@H](NC(=O)[C@@H](N)CC(=O)O)C(=O)N[C@@H](Cc1c[nH]cn1)C(=O)N[C@H](C(=O)N1[C@H](C(=O)N[C@H](C(=O)N[C@@H](CS)C(=O)N[C@H](C(=O)N[C@@H](Cc2ccccc2)C(N)=O)C2CCCCC2)C2CCCCC2)C[C@@H]2CCCC[C@@H]21)c1ccccc1) [Pr10] | > 3000 |
| DTHFPICI[β3hF]P[β3hP]R-NH2 [Pr22] | 600 |
